B1: OsUGT707A2 (Oryza sativa Japonica Group) (protein)
chain: MAPAMASSAATVVLIPFCVSGHLTPMLEVGKRMLRSRCCGDDDDGRPAMSLTVLLAQLPESHRAPEIDEIIRREAAGASEHSGFDVRFHCLPAEELPDFRGGEDFISRFMQQHASHAREAIAGLESRVAAVVLDWFCTTLLDVTRDLGLPGYVFFTSAASMLSLLLRLPALDKEVAVDFEEMGGAVDLPGLPPVPAALLPTPVMKKGCNYEWLVYHGSRFMEAAGIIVNTVAELEPAVLEAIADGRCVPGRRVPAIYTVGPVLSFKTPPEKPHECVRWLDAQPRASVVFLCFGSMGSFAPPQVLEIAAGLERSGHRFLWVLRGRPPAGSPYPTDADADELLPEGFLERTKGRGMVWPTWAPQKDILAHAAVGGFVTHGGWNSTLESLWHGVPMAPWPLYAEQHLNAFELVRDMGVAVEMEVDRKRGNLVEAAELERAVRCLMDEGSEEGRMAREKAAAAKAACRNAVDGGGSSIAALRKLTQEMAHMSSI
notes: full cDNA in pGEX-6p-1, N-terminal GST fusion, E. coli BL21(DE3), glutathione Sepharose purified
B2: OsUGT706D1 (Oryza sativa Japonica Group) (protein)
chain: MESKPSRNVVLYAAMGAGHLLPMVELAKLFLTRGLDVTIAVPATPGSGTTGSPTIAGIAASNPSITFHHLPPPPSCADPDPNPLLLMLDVLRRSVPSLASLLRSIPSVAALVLDIFCAEAVDAAAALHVPAYIYFTSAAGAFAASLGLMHHYSTTTTNLRDMGKALLRFPGVPPIPASDMPSLVQDREGRFYKARVKLYARAMEASGVLLNTYEWLEARAMGALREGACSPDRPTPPVYCVGPLVASGEEEGGGVRHACLAWLDAQPARSVVFLCFGSMGSFSAAQLKEIARGLESSGHRFLWVVRSPRQDPANLLEHLPEPDLAALLPEGFLERTADKGMVVKSWAPQAKVLRHAATAAFVTHCGWNSTLEGITAGVPLLCWPLYAEQRMNKVFIVEEMKVGVVIDGYDEEMVSAEEVEAKVRLVMESEEGGKLLERLAVARAKAVEALAEEGPSRVAFDEFIDRLVTSE
notes: as for B1

Key:
purified protein [1] = substrate: O=c1c(O)c(-c2ccc(O)cc2)oc2cc(O)cc(O)c12; assay: purified protein; details: 1.5 mM UDP-glucose, 5 mM MgCl2, Tris-HCl pH 7.4, 37 °C, 3-O-glucosylation
purified protein [2] = substrate: O=c1cc(-c2ccc(O)cc2)oc2cc(O)cc(O)c12; assay: purified protein; details: 1.5 mM UDP-glucose, 5 mM MgCl2, Tris-HCl pH 7.4, 37 °C
[3] = substrate: O=c1c(O)c(-c2ccc(O)c(O)c2)oc2cc(O)cc(O)c12; assay: purified protein, by the assay type; design: HPLC glucoside product formation by recombinant GST-UGT, 1.5 mM UDP-glucose, Michaelis-Menten fit; details: pH 8.0; 20.0 °C
Procedure: (§1) To determine the kinetic constants of UGTs for flavonoid acceptors, their activities were determined using 0 to 400 μM different flavonoids at a fixed concentration of 1.5 mM UDP-glucose. Flavonoids were purchased from BioBioPha Co., Ltd (www.biobiopha.com/) and UDP-sugars were purchased from Sigma-Aldrich, USA. All Kinetic parameters were calculated using Michaelis-Menten model (Sigma Plot, version 12.5). All the reactions were run in duplicate, and each experiment was repeated twice. The full cDNA of UGTs from Nipponbare (O. sativa L. spp. japonica) were cloned into the pGEX-6p-1 expression vector (Novagen) with a glutathione S-transferase tag. Recombinant proteins were expressed in BL21 (DE3) cells (Novagen) following induction by addition of 0.1 mM isopropy-β-D-thiogalactoside (IPTG) and growing continually for 16 h at 20 °C. Cells were collected and pellets were resuspended in lysis buffer (50 mM Tris-HCl, pH 8.0, 400 mM NaCl). The cells were disrupted by the high pressure cracker and cell debris was removed by centrifugation (14000 g, 1 h). Glutathione Sepharose 4B agarose (GE Healthcare) was added to the supernatant containing the target proteins. After incubation for 1 h, the mixture was transferred into a disposable column and washed extensively with lysis buffer (5 column volumes). Target proteins in collections were confirmed by SDS-PAGE and purified recombinant proteins were selected for enzyme assays and kinetics determination.

[4] = substrate: O=c1cc(-c2ccc(O)c(O)c2)oc2cc(O)cc(O)c12; assay: purified protein, by the assay type; design: HPLC glucoside product formation by recombinant GST-UGT, 1.5 mM UDP-glucose, Michaelis-Menten fit; details: pH 8.0; 20.0 °C
Procedure: as §1

Protein	Km (purified protein [1]) [µM]	kcat (purified protein [1]) [s⁻¹]	Km (purified protein [2]; 5-O-glucosylation) [µM]	kcat (purified protein [2]; 5-O-glucosylation) [s⁻¹]	Km [3] [µM]	kcat [3] [s⁻¹]	kcat/Km [3] [M⁻¹ s⁻¹]	Km [4] [µM]	kcat [4] [s⁻¹]	kcat/Km [4] [M⁻¹ s⁻¹]	Km (purified protein [2]; 7-O-glucosylation) [µM]	kcat (purified protein [2]; 7-O-glucosylation) [s⁻¹]
B1	6.7 ± 0.7	0.20 ± 0.01	8.9 ± 1.8	0.4 ± 0.06	5.1 ± 0.6	0.06 ± 0.01	10000	1.5 ± 0.5	0.05 ± 0.01	30000		
B2	16.8 ± 1.3	0.4 ± 0.01			11.9 ± 1.9	0.07		11.6 ± 0.35	0.4 ± 0.2	40000	17.7 ± 1.3	0.7 ± 0.02

— publication PMC5719032, “Differentially evolved glucosyltransferases determine natural variation of rice flavone accumulation and UV-tolerance” (Nature Communications, 2017)
